Measurements: IntAct's records for PubMed 19194460

B1: Decapping nuclease din1 (Schizosaccharomyces pombe (strain ATCC 38366 / 972)), O13836 (parent)
chain: MLREFSFYDVPPAHVPPVSEPLEIACYSLSRDRELLLDDSKLSYYYPPPLFSDLNTGFPNRFHPPKSDPDPISIVKDVLMTKGIQMNSSFLTWRGLITKIMCAPLDPRNHWETYLVMDPTSGIIMMEERTRSETSYANQDRMCYWGYKFEAISTLPEIWDACSRDQIEQRDNQDVVPDEQYCSIVKINIGKSKLILAGEVDCIWDKKPCSAKESDVHSDDGTIEEDASNAENPNLHYVELKTSKKYPLENYGMRKKLLKYWAQSFLLGIGRIIIGFRDDNGILIEMKELFTHQIPKMLRPYFKPNDWTPNRLLVVLEHALEWIKQTVKQHPPSTEFTLSYTGGSKLVLRQII
partner: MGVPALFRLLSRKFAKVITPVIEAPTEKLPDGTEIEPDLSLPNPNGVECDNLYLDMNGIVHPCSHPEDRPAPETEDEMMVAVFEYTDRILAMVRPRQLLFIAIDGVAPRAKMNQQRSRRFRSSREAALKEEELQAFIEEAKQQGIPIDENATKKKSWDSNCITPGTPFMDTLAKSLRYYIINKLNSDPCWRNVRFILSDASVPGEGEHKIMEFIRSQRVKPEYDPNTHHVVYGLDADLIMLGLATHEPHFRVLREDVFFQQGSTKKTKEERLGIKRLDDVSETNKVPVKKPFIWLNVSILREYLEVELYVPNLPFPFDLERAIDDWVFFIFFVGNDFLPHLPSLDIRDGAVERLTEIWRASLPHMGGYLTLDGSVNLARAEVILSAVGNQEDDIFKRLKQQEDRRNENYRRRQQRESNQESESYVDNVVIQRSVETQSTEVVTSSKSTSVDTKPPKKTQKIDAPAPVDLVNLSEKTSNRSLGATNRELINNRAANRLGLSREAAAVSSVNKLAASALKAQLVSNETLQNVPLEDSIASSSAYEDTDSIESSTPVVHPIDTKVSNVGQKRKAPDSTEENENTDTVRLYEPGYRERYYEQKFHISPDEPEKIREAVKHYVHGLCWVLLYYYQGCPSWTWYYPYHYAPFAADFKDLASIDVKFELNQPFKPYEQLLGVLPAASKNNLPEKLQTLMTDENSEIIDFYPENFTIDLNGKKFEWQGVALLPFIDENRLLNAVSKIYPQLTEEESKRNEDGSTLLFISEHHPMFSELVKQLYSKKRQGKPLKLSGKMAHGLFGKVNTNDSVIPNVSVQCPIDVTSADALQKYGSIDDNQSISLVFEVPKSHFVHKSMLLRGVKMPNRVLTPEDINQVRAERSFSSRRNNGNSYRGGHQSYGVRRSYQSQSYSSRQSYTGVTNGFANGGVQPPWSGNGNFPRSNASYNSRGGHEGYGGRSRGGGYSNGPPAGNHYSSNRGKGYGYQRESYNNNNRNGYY

Variants of: B1
Conditions: with xrn2_schpo dhp1, P40848

effect of a mutation on the interaction | Variant
decreasing interaction | R164A
decreasing interaction | W204A
decreasing interaction | W159A
